Laboratory results published in US20100291088A1.
Blank lines part the entries; values can stand above or below the binder they belong to.

How the values were obtained:
Test in all cases: cell-based or functional assay
NEM-huIL-18 (human) = NEM-huIL-18 (human) (UniProt Q14116)
(4C/A)-huIL-18 (human) = (4C/A)-huIL-18 (human) (UniProt Q14116)
[1] = biological target: natural human IL-18 (human) (UniProt Q14116)

KG-1 Assays (IC50, M) (NEM-huIL-18 (human)): 7e-09 M
B1: 268 (antibody, V domains shown)
VH: ZVQLVESGGGVVQPGRSLRLSCAASGFTFRNYGLHWVRQAPGKGLEWVAVIWYDGSNKYYADSVKGRFTISRDNSKNTLYLQMNSLRAEDTAVYYCARESYYYYGMDVWGQGTTVTVSS
VL: EIVMTQSPATLSVSPGERATLSCRASQSFNSNLVWYQQKPGQAPRLLIYGASTRATGIPARFSGSGSGTEFTLTISSLQSEDFAVYYCQQYNNWTWTFGQGTKVEIKR

KG-1 neutralization potency in vitro (IC50, nM) ((4C/A)-huIL-18 (human)): 0.2 nM | WBA neutralization potency in vitro (IC50, nM) [1]: 3 nM
B2: Murine anti-human IL-18 mAb (125-2H) (antibody, from another filing, V domains shown)
VH: EIQLQQSGPELVKPGASVKVSCKASGYSFTDYFIYWVKQSHGKSLEWIGDIDPYNGDTSYNQKFRDKATLTVDQSSTTAFMHLNSLTSEDSAVYFCARGLRFWGQGTLVTVSA
VL: DIQMTQSPSSLSASLGERVSLTCRASQDIGSKLYWLQQEPDGTFKRLIYATSSLDSGVPKRFSGSRSGSDYSLTISSLESEDFVDYYCLQYASSPYTFGGGTKLAIKR
